One molecule from publication PMC5841623 (Journal of molecular biology, 2016) can be followed below.

In this experiment the target is Recombinant DnaJ-1-HA (Drosophila, UniProt Q24133 1-334). Kind of experiment: co-IP.
Recombinant DnaJ-1-HA, sequence (Q24133 whole entry): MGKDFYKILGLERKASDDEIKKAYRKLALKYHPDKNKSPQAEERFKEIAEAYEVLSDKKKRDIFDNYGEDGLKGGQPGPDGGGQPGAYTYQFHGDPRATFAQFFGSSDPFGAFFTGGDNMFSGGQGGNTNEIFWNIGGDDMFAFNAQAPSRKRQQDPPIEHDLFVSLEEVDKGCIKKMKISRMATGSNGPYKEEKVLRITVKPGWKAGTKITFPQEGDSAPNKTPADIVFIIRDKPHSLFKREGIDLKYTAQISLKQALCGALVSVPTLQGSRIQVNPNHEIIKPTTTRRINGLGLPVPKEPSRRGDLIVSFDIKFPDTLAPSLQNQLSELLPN

B1: Recombinant His-MLF (natural protein, Drosophila, UniProt Q9NKV0-2 1-309, looked up)
chain: MSLFGALMGDFDDDLGLMNNHMNHTMNAMNMQMRSMNRLMNSFMPDPFMQVSPFDQGFQQNALMERPQMPAMPAMGLFGMPMMPNFNRLLNADIGGNSGASFCQSTVMTMSSGPDGRPQIYQASTSTKTGPGGVRETRRTVQDSRTGVKKMAIGHHIGERAHIIEKEQDMRSGQLEERQEFINLEEGEAEQFDREFTSRASRGAVQSRHHAGGMQAIMPARPAAHTSTLTIEPVEDDDDDDDDCVIQEQQPVRSSAGRHYSSAPTAPQNSIHPHPYAANPRRQQRAVKHFHTEDEAASSYKAVKRGKKK
B1: the binding result is recorded as “binds”.
